T1: HipA^C, C-terminal component of the split HipA toxin from Haemophilus influenzae (HI0665), His-tagged (H. influenzae (KW20 strain, ATCC 51907), UniProt P44033 1-343)
T1 construct: also called His-tagged HipA^C; not shown: His6, N-terminal, kept
T1 sequence: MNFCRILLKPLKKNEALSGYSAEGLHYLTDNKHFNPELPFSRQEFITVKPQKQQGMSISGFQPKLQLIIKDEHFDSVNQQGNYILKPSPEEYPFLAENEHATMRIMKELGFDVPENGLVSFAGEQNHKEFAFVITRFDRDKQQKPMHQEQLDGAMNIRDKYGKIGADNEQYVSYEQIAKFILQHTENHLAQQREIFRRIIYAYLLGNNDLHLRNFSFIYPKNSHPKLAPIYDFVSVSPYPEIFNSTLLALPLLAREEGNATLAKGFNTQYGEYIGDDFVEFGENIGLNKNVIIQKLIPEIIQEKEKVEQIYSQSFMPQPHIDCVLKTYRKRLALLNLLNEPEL

B1: HipA^N, N-terminal component of the split HipA toxin from Haemophilus influenzae (HI0666) (natural protein)
chain: MRDLVRSGKVFLYGEFIGLLREDHRGFHFSYNPDYQGIPLSLSFPIEQSPFHSDTLFPYFASLVPEGWLKHKYALHQRIDESDMFRFLLNNGENMLGAVQIQEEKQ

Experiments:
[1] = target: HipB antitoxin from Haemophilus influenzae (HI0666.1) (H. influenzae (KW20 strain, ATCC 51907)) (UniProt P44034); experiment: cross-linking; chemical cross-linking of H. influenzae HipB with DMA and DMS cross-linkers, SDS-PAGE
[2] = target: T1, HipA^C, C-terminal component of the …; experiment: pull-down; details: partners not purified

Row | Molecule | stoichiometry N [1] | binding result [2]
1 | HipB antitoxin from Haemophilus influenzae (HI0666.1) (from UniProt P44034 1-106) (natural protein) | 2 | 
2 | B1 |  | binds
